Consider six molecules from patent publication US10633429B2, “Human antibody κ type light chain complex-containing composition and method for producing same” (JAPAN SCIENCE AND TECHNOLOGY AGENCY, priority 2013, dated 2020).

Assay [1] has as its system MOLT-4 cell line (human acute lymphoblastic leukemia T cell line). Put plainly: Cytotoxicity assay (WST assay), MOLT-4 cell line. In kind it is cell-based. Particulars: Example 6, 24 h, light chain not bound with copper ions set to 100%. As to the method: (§1) The cytotoxicity of each complex-containing composition to cancer cells was tested using cancer cell lines. As the cancer cell lines, A549 cell line (human alveolar epithelial cancer cell line), ES-2 cell line (human ovarian cancer cell line), MOLT-4 cell line (human acute lymphoblastic leukemia T cell line), BxPC-3 cell line (human pancreatic adenocarcinoma cell line), SNU-1 cell line (human metastatic gastric cancer cell line), and PANC-1 cell line (human pancreatic cancer cell line) were used.
(§2) All of these cell lines were purchased from ATCC (American Type Culture Collection). Here, the A549 cell line was cultured using a 10% FCS (fetal calf serum)-containing F-12K culture medium by a general method, the ES-2 cell line was cultured using a 10% FCS-containing McCoy's 5A culture medium by a general method, each of the MOLT-4 cell line, SNU-1 cell line, and BxPC-3 cell line was cultured using a 10% FCS-containing RPMI-1640 culture medium by a general method, the PANC-1 cell line was cultured using a 10% FCS-containing DMEM culture medium by a general method, and the WI-38 cell line was cultured using a 10% FCS-containing EMEM culture medium by a general method.
(§3) First, after being recovered by thawing the frozen cancer cell lines, the recovered cancer cell lines were seeded in a 96-well plate by 100 μL to be 5×10^3 cells/well (the number of seeds was appropriately adjusted by cell species). After culturing was carried out at 37° C. for 24 hours, a culture medium to be added to the 96-well plate was removed by decantation, and then each complex-containing composition prepared at a concentration of about 1 mg/mL was added to each well by 100 μL. After culturing was carried out for 24 hours or 48 hours from the addition of the complex-containing composition (after cells are planted and cultivated for 48 hours or 72 hours), a WST-1 reagent (manufactured by Roche Inc.) was added to each well by 10 μL and incubated for 1, 1.5, and 2 hours to form a formazan dye, and then the absorbance (Abs at 450 nm) of the formazan dye was measured (WST assay). As a control, a human antibody κ type light chain not bound to metal ions or PBS was added instead of the complex-containing composition and cultured for 24 hours or 48 hours, and then WST assay was carried out. Based on the results of the obtained absorbance, the cell survival rate of the well added with the human antibody κ type light chain not bound to metal ions or the well added with the PBS was set to 100%, and the cell survival rate of each well was determined, so as to evaluate the cytotoxicity of the added complex-containing composition.
Meanwhile, in the case of the MOLT-4 cell line, from the time cells were seeded in the 96-well plate, each complex-containing composition prepared at a concentration of about 1 mg/mL was added to each well by 100 μL and cultured for 24 hours or 48 hours, and then WST assay was carried out.

Assay [2] deals with SNU-1 cell line (human metastatic gastric cancer cell line). Briefly: Cytotoxicity assay (WST assay), SNU-1 cell line. In kind it is cell-based. Particulars: 24 h, light chain not bound with copper ions set to 100%. On the procedure: as §1
(§4) All of these cell lines were purchased from ATCC (American Type Culture Collection). […]
(§5) First, after being recovered by thawing the frozen cancer cell lines, the recovered cancer cell lines were seeded in a 96-well plate by 100 μL to be 5×10^3 cells/well (the number of seeds was appropriately adjusted by cell species). […] After culturing was carried out for 24 hours or 48 hours from the addition of the complex-containing composition (after cells are planted and cultivated for 48 hours or 72 hours), a WST-1 reagent (manufactured by Roche Inc.) was added to each well by 10 μL and incubated for 1, 1.5, and 2 hours to form a formazan dye, and then the absorbance (Abs at 450 nm) of the formazan dye was measured (WST assay). […]

In assay [3] the test system is A549 cell line (human alveolar epithelial cancer cell line). Briefly: Cytotoxicity assay (WST assay), A549 cell line. It is filed as cell-based. Particulars: Example 6, 24 h, light chain not bound with copper ions set to 100%. As to the method:
as §1, §2, §3

Assay [4] concerns B-16 cell line (mouse melanoma-derived cell) subcutaneous tumor. Briefly: Cytotoxicity assay in tumor-bearing mouse model, B-16 cell line transplanted. It is filed as in vivo. Particulars: B-16-transplanted mouse; 32.3 μg per mouse injected into subcutaneous tumor, total of 10 times from 4th day; n=2. As to the method:
[Cytotoxicity Assay in Tumor-Bearing Mouse Model]
The cytotoxicity of each complex-containing composition to cancer cells in a tumor-bearing mouse model was tested using tumor-bearing mouse models.
First, the ES-2 cell line (human ovarian cancer-derived cell) or the B-16 cell line (mouse melanoma-derived cell) was subcutaneously transplanted into a mouse to a concentration of 2.5×10^6 cells/mouse. The complex-containing composition was administered against tumors subcutaneously established in the mouse from the 4th day after cancer cell transplantation. The administration of the complex-containing composition was carried out by directly injecting the complex-containing composition into a plurality of sites in the subcutaneous tumor from the outside of the mouse body using a syringe. […]
The volume of the subcutaneous tumor over time was measured from the outside of the mouse body, the volume of the subcutaneous tumor at the 1st day after cancer cell transplantation (next day after transplantation) was set to 1, and the relative tumor volume was determined, so as to evaluate the cytotoxicity of the complex-containing composition to cancer cells in the tumor-bearing mouse model. […]

Assay [5] deals with ES-2 cell line (human ovarian cancer cell line). Briefly: Cytotoxicity assay (WST assay), ES-2 cell line. Particulars: Example 6, 24 h, light chain not bound with copper ions set to 100%. In kind it is cell-based. On the procedure:
as §1, §2, §3

Assay [6] relates to BxPC-3 cell line (human pancreatic adenocarcinoma cell line). Put plainly: Cytotoxicity assay (WST assay), BxPC-3 cell line. It is filed as cell-based. Particulars: Example 6; copper-bound light chain 40 μM; 24 h; light chain not bound with copper ions set to 100%. As to the method: as §1, §4, §5
[7] abbreviates: copper-bound light chain 12.3 μM.

B1: #4: human antibody κ type light chain, SEQ ID NO. 12; tested bound with copper ions (protein)
light: DVVMTQTPLSLSVTPGEPASISCRSTQSLLDSDGVNPSFDWYVQKPGQSPQLLIHRGFYRASGVPDRFSGSGSGTDFTLRISRVEAEDVGVYYCMQRIEFPLTFGGGTKVELKRTVAAPSVFIFPPSDEQLKSGTASVVCLLNNFYPREAKVQWKVDNALQSGNSQESVTEQDSKDSTYSLSSTLTLSKADYEKHKLYACEVTHQGLSSPVTKSFNRGEC
modifications: bound copper ions; human; Human antibody kappa light chain (#4)
On to B1, for which the “Relative cell survival rate” value stood at 69.6% in assay [1] (copper-bound light chain 4 μM); 42.3% in assay [1] (copper-bound light chain 20 μM); 24.3% in assay [1] (copper-bound light chain 40.4 μM); 29.5% in assay [2] (Example 7, Table 5, copper-bound light chain 39.4 μM); 81.8% in assay [3] (copper-bound light chain 25.2 μM); 79.1% in assay [3] (copper-bound light chain 34.9 μM). Also, the “Relative cell survival rate” value in assay [5] (copper-bound light chain 20 μM) was 50.3%. For the same molecule, the “Relative tumor volume at 15 days after transplantation, compared to control group (PBS)” value in assay [4] was “about ⅓”.

B2: #11: human antibody κ type light chain, SEQ ID NO. 14; tested bound with copper ions (protein)
light: DIVMTQTPLSLSVTPGQPASISCKSSQSLLHSDGKTYLYWYLQKPGQSPQLLLYEVSSRFSGVPDRFSGSGSGTDFTLKISRVEAEDVGVYYCMQGIHLPYTFGQGTKLEIKRTVAAPSVFIFPPSDEQLKSGTASVVCLLNNFYPREAKVQWKVDNALQSGNSQESVTEQDSKDSTYSLSSTLTLSKADYEKHKLYACEVTHQGLSSPVTKSFNRGEC
modifications: bound copper ions; human; Human antibody kappa light chain (#11)
For the molecule B2, the “Relative cell survival rate” value in assay [3] (setting [7]) stood at 73.2%; in assay [3] (copper-bound light chain 20 μM), 54.5%; in assay [5] (setting [7]), 58.5%; in assay [5] (copper-bound light chain 20 μM), 23.8%.

B3: #7VL: mutant of light chain #7, full-length SEQ ID NO. 4; tested bound with copper ions (protein)
light: EIVMTQSPLSLPVTPGEPASISCRSSQSLLHSNTRNYLDWYLQKPGQSPQLLIYLGSNRASGVPDRFSGSGSGTDFTLKISRVEAEDVGVYYCMQGLQTPRTFGQGTKVEIKRTVAAPSVFIFPPSDEQLKSGTASVVCLLNNFYPREAKVQWKVDNALQSGNSQESVTEQDSKDSTYSLSSTLTLSKADYEKHKLYACEVTHQGLSSPVTKSFNRGEC
modifications: bound copper ions; human; Human antibody kappa light chain (#7 VL)
Take B3: the entries for the “Relative cell survival rate” value in assay [1] (copper-bound light chain 40 μM), in assay [3] (copper-bound light chain 40 μM) and in assay [5] (copper-bound light chain 40 μM) were 29.4%, 45.9% and 35.7%, respectively.

B4: #7VL(RL): mutant of light chain #7, full-length SEQ ID NO. 8; tested bound with copper ions (protein)
light: EIVMTQSPLSLPVTPGEPASISCRSSQSLLHSNTRNYLDWYLQKPGQSPQLLIYLGSNRASGVPDRFSGSGSGTDFTLKISRVEAEDVGVYYCMQGLQTPRTFGQGTRLEIKRTVAAPSVFIFPPSDEQLKSGTASVVCLLNNFYPREAKVQWKVDNALQSGNSQESVTEQDSKDSTYSLSSTLTLSKADYEKHKLYACEVTHQGLSSPVTKSFNRGEC
modifications: bound copper ions; human; Human antibody kappa light chain (#7 VL(RL))
B4: the “Relative cell survival rate” value in assay [1] (copper-bound light chain 40 μM) is 32.4%; in assay [3] (copper-bound light chain 40 μM), 48.0%; in assay [5] (copper-bound light chain 40 μM), 49.4%.

B5: #7RL I: mutant of light chain #7, full-length SEQ ID NO. 10; tested bound with copper ions (protein)
light: EIVMTQSPLSLPVTPGEPASISCRSSQSLLHSNTRNYLDWYLQKPGQSPQLLIYLGSNRASGVPDRFSGSGSGTDFTLKISRVEAEDVGVYYCMQGLQTPITFGQGTRLEIKRTVAAPSVFIFPPSDEQLKSGTASVVCLLNNFYPREAKVQWKVDNALQSGNSQESVTEQDSKDSTYSLSSTLTLSKADYEKHKLYACEVTHQGLSSPVTKSFNRGEC
modifications: bound copper ions; human; Human antibody kappa light chain (#7 RLI)
In the case of B5, the “Relative cell survival rate” value was found to be 52.2% in assay [2] (Example 6, copper-bound light chain 40 μM); 41.9% in assay [3] (copper-bound light chain 40 μM); 77.6% in assay [6].

B6: #7VL(I): mutant of light chain #7, full-length SEQ ID NO. 6; tested bound with copper ions (protein)
light: EIVMTQSPLSLPVTPGEPASISCRSSQSLLHSNTRNYLDWYLQKPGQSPQLLIYLGSNRASGVPDRFSGSGSGTDFTLKISRVEAEDVGVYYCMQGLQTPITFGQGTKVEIKRTVAAPSVFIFPPSDEQLKSGTASVVCLLNNFYPREAKVQWKVDNALQSGNSQESVTEQDSKDSTYSLSSTLTLSKADYEKHKLYACEVTHQGLSSPVTKSFNRGEC
modifications: bound copper ions; human; Human antibody kappa light chain (#7 VL(I))
B6: the “Relative cell survival rate” value in assay [1] (copper-bound light chain 40 μM) amounted to 58.7%; in assay [3] (copper-bound light chain 40 μM), 79.0%; in assay [5] (copper-bound light chain 40 μM), 53.7%.
